Assay results reported in patent publication US20240270820A1 (ELANCO US, published 2024).

B1: canine IL13R-IL4R-IgGB (Fc fusion)
chain: TETQPPVTNLSVSVENLCTVIWTWDPPEGASPNCTLRYFSHFDNKQDKKIAPETHRSKEVPLNERICLQVGSQCSTNESDNPSILVEKCTPPPEGDPESAVTELQCVWHNLSYMKCTWLPGRNTSPDTNYTLYYWHSSLGKILQCEDIYREGQHIGCSFALTNLKDSSFEQHSVQIVVKDNAGKIRPSFNIVPLTSHVKPDPPHIKRLFFQNGNLYVQWKNPQNFYSRCLSYQVEVNNSQTETNDIFYVEEAKCQNSEFEGNLEGTICFMVPGVLPDTLNTVRIRVRTNKLCYEDDKLWSNWSQAMSIGENTDPTGGGSGSGSVKVLHEPSCFSDYISTSVCQWKMDHPTNCSAELRLSYQLDFMGSENHTCVPENREDSVCVCSMPIDDAVEADVYQLDLWAGQQLLWSGSFQPSKHVKPRTPGNLTVHPNISHTWLLMWTNPYPTENHLHSELTYMVNVSNDNDPEDFKVYNVTYMGPTLRLAASTLKSGASYSARVRAWAQTYNSTWSDWSPSTTWLNYYEPKRENGRVPRPPDCPKCPAPEMLGGPSVFIFPPKPKDTLLIARTPEVTCVVVDLDPEDPEVQISWFVDGKQMQTAKTQPREEQFNGTYRVVSVLPIGHQDWLKGKQFTCKVNNKALPSPIERTISKARGQAHQPSVYVLPPSREELSKNTVSLTCLIKDFFPPDIDVEWQSNGQQEPESKYRTTPPQLDEDGSYFLYSKLSVDKSRWQRGDTFICAVMHEALHNHYTQESLSHSPGK
notes: also called Canis lupus IL13R-IL4R-Fc; canine IL13R-IL4R-Fc
B2: canine IL4R-IL13R-IgGB (Fc fusion)
chain: SGSVKVLHEPSCFSDYISTSVCQWKMDHPTNCSAELRLSYQLDFMGSENHTCVPENREDSVCVCSMPIDDAVEADVYQLDLWAGQQLLWSGSFQPSKHVKPRTPGNLTVHPNISHTWLLMWTNPYPTENHLHSELTYMVNVSNDNDPEDFKVYNVTYMGPTLRLAASTLKSGASYSARVRAWAQTYNSTWSDWSPSTTWLNYYEPGGGSGTETQPPVTNLSVSVENLCTVIWTWDPPEGASPNCTLRYFSHFDNKQDKKIAPETHRSKEVPLNERICLQVGSQCSTNESDNPSILVEKCTPPPEGDPESAVTELQCVWHNLSYMKCTWLPGRNTSPDTNYTLYYWHSSLGKILQCEDIYREGQHIGCSFALTNLKDSSFEQHSVQIVVKDNAGKIRPSFNIVPLTSHVKPDPPHIKRLFFQNGNLYVQWKNPQNFYSRCLSYQVEVNNSQTETNDIFYVEEAKCQNSEFEGNLEGTICFMVPGVLPDTLNTVRIRVRTNKLCYEDDKLWSNWSQAMSIGENTDPTPKRENGRVPRPPDCPKCPAPEMLGGPSVFIFPPKPKDTLLIARTPEVTCVVVDLDPEDPEVQISWFVDGKQMQTAKTQPREEQFNGTYRVVSVLPIGHQDWLKGKQFTCKVNNKALPSPIERTISKARGQAHQPSVYVLPPSREELSKNTVSLTCLIKDFFPPDIDVEWQSNGQQEPESKYRTTPPQLDEDGSYFLYSKLSVDKSRWQRGDTFICAVMHEALHNHYTQESLSHSPGK
notes: also called canine IL4R-IL13R-Fc; Canine IL4R-IL13R-Fc (SINK)

How the values were obtained:
[1] = target: T1, canine IL13 with C-terminal poly-His tag (canine, UniProt Q9N0W9 19-131); assay: BLI (Octet), summary sentence of Example 4
T1 construct: Expressed in 293 cells and purified from the supernatant
T1 sequence: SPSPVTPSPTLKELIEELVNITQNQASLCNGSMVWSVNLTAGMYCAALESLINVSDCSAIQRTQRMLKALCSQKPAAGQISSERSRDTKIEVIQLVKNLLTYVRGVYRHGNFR

[2] = target: T2, canine IL4 (Sino Biological Inc, Cat #70021-DNAE-5) (canine, UniProt O77762 25-132); assay: cell-based or functional assay
T2 sequence (looked up): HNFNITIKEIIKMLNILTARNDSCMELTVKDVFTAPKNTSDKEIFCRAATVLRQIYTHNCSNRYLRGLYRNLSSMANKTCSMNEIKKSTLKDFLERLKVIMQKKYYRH

Row | Binder | binding result [1] | TF1 cell proliferation assay (CellTiter-Glo luminescence), IC50 by 4 parameter logistic fit [2] [nM]
1 | B1 | binds | –
2 | B2 | binds | 2
